Assay results published in patent US20210316003A1 (Immunomedics, Inc., priority 2020, published 2021).
Like-named read-outs stand apart in the source and are kept apart here.

System: patients with metastatic urothelial cancer (mUC)
Procedure: Endpoints included safety, investigator-evaluated objective response rate (ORR per RECIST 1.1), clinical benefit rate, duration of response (DOR), progression-free survival (PFS), and overall survival (OS). Sequencing analysis of differentially mutated and expressed genes and pathways was performed in subsets of tumors from responders and non-responders.
Hematopoietic growth factors or blood transfusions were allowed at the investigator's discretion, but not prior to the first dose. Other supportive care (antiemetics, anti-diarrheal medications, or bone-stabilizing agents) were allowed as medically needed.
Additional secondary objectives included assessment of pharmacokinetics and immunogenicity, which were previously reported by Ocean and colleagues (Ocean et al., 2017, Cancer 123:3843-54). Safety evaluations included adverse events (AEs), serious adverse events (SAEs), laboratory safety evaluations, vital signs, physical examinations, and 12-lead electrocardiograms (ECG; performed at baseline, after completion of the infusion on day 1 of every even-numbered treatment cycle, at the end of treatment, and at the end of the study). AEs were graded according to the National Cancer Institute Common Terminology Criteria for Adverse Events, version 4.0.
The data cut-off date for this analysis was Sep. 1, 2018. ORR and CBR were calculated with 95% confidence intervals estimated by the Clopper-Pearson method (Clopper & Pearson, 1934, Biometrika 26:404-13). PFS, OS, and time-to-event endpoints were analyzed by the Kaplan-Meier method, with medians and corresponding 95% confidence intervals determined by the Brookmeyer and Crowley method with log-log transformation. Descriptive statistics were used to characterize AEs. Fischer's exact test was applied to a matrix of pathway-associated gene counts of mutated and wild type phenotypes between responders and non-responders to identify pathways enriched in either of the two response groups. P-values for single sample GSEA (ssGSEA) enrichment score differences between the responder and non-responder patient groups were obtained from the Mann-Whitney statistical test.

[1] = mUC, N = 45, regardless of causality
[2] = mUC, N = 45, listed as Sacituzumab Govitecan

sacituzumab govitecan
Maximum tolerated dose (days 1 and 8 every 21 days, intravenous): 10 mg/kg
Patients with dose reductions (mUC, 18 of 45): 40%
AEs leading to death or treatment-related deaths (mUC, N = 45): no treatment-related deaths were reported
Anemia, grade ≥3 (mUC, N = 45): 13%
Diarrhea, grade ≥3 (mUC, N = 45): 9%
Discontinued for treatment-related AE, % (mUC, N = 45): (11.1) %
Fatigue, grade ≥3 (mUC, N = 45): 9%
Febrile neutropenia, grade ≥3 (mUC, N = 45): 7%
Hypophosphatemia, grade ≥3 (mUC, N = 45): 11%
Neutropenia, grade ≥3 (mUC, N = 45): 38%
Peripheral neuropathy or cardiovascular AEs of grade 3 or higher (mUC, N = 45): no cases
Alopecia, Any Grade, % of patients [1]: (40.0) %
Alopecia, Any Grade, No. of patients [1]: 18
Alopecia, Grade 3, No. of patients [1]: 0
Alopecia, Grade 4, No. of patients [1]: 0
Anemia, Any Grade, % of patients [1]: (33.3) %
Anemia, Any Grade, No. of patients [1]: 15
Anemia, Grade 3, % of patients [1]: (13.3) %
Anemia, Grade 3, No. of patients [1]: 6
Anemia, Grade 4, No. of patients [1]: 0
Any adverse event, Any Grade, % of patients [1]: (100) %
Any adverse event, Any Grade, No. of patients [1]: 45
Any adverse event, Grade 3, % of patients [1]: (55.6) %
Any adverse event, Grade 3, No. of patients [1]: 25
Any adverse event, Grade 4, % of patients [1]: 17.8%
Any adverse event, Grade 4, No. of patients [1]: 8
Back pain, Any Grade, % of patients [1]: (22.2) %
Back pain, Any Grade, No. of patients [1]: 10
Back pain, Grade 3, No. of patients [1]: 0
Back pain, Grade 4, No. of patients [1]: 0
Constipation, Any Grade, % of patients [1]: (44.4) %
Constipation, Any Grade, No. of patients [1]: 20
Constipation, Grade 3, No. of patients [1]: 0
Constipation, Grade 4, No. of patients [1]: 0
Cough, Any Grade, % of patients [1]: (31.1) %
Cough, Any Grade, No. of patients [1]: 14
Cough, Grade 3, No. of patients [1]: 0
Cough, Grade 4, No. of patients [1]: 0
Decreased appetite, Any Grade, % of patients [1]: (37.8) %
Decreased appetite, Any Grade, No. of patients [1]: 17
Decreased appetite, Grade 3, No. of patients [1]: 0
Decreased appetite, Grade 4, No. of patients [1]: 0
Diarrhea, Any Grade, % of patients [1]: (68.9) %
Diarrhea, Any Grade, No. of patients [1]: 31
Diarrhea, Grade 3, No. of patients [1]: 4
Diarrhea, Grade 4, No. of patients [1]: 0
Dizziness, Any Grade, % of patients [1]: (22.2) %
Dizziness, Any Grade, No. of patients [1]: 10
Dizziness, Grade 3, No. of patients [1]: 0
Dizziness, Grade 4, No. of patients [1]: 0
Fatigue, Any Grade, % of patients [1]: (57.8) %
Fatigue, Any Grade, No. of patients [1]: 26
Fatigue, Grade 3, % of patients [1]: (8.9) %
Fatigue, Grade 3, No. of patients [1]: 4
Fatigue, Grade 4, No. of patients [1]: 0
Febrile neutropenia, Any Grade, % of patients [1]: (6.7) %
Febrile neutropenia, Any Grade, No. of patients [1]: 3
Febrile neutropenia, Grade 3, % of patients [1]: (6.7) %
Febrile neutropenia, Grade 3, No. of patients [1]: 3
Febrile neutropenia, Grade 4, No. of patients [1]: 0
Hypophosphatemia, Any Grade, % of patients [1]: (20.0) %
Hypophosphatemia, Any Grade, No. of patients [1]: 9
Hypophosphatemia, Grade 3, % of patients [1]: (11.1) %
Hypophosphatemia, Grade 3, No. of patients [1]: 5
Hypophosphatemia, Grade 4, No. of patients [1]: 0
Nausea, Any Grade, % of patients [1]: (66.7) %
Nausea, Any Grade, No. of patients [1]: 30
Nausea, Grade 3, % of patients [1]: (2.2) %
Nausea, Grade 3, No. of patients [1]: 1
Nausea, Grade 4, No. of patients [1]: 0
Neutropenia (incl. neutrophil count decreased), Any Grade, % of patients [1]: (51.1) %
Neutropenia (incl. neutrophil count decreased), Any Grade, No. of patients [1]: 23
Neutropenia, Grade 3, % of patients [1]: (22.2) %
Neutropenia, Grade 3, No. of patients [1]: 10
Neutropenia, Grade 4, % of patients [1]: 15.6%
Neutropenia, Grade 4, No. of patients [1]: 7
Pyrexia, Any Grade, % of patients [1]: (24.4) %
Pyrexia, Any Grade, No. of patients [1]: 11
Pyrexia, Grade 3, No. of patients [1]: 0
Pyrexia, Grade 4, No. of patients [1]: 0
Rash, Any Grade, % of patients [1]: (22.2) %
Rash, Any Grade, No. of patients [1]: 10
Rash, Grade 3, No. of patients [1]: 0
Rash, Grade 4, No. of patients [1]: 0
Vomiting, Any Grade, % of patients [1]: (31.1) %
Vomiting, Any Grade, No. of patients [1]: 14
Vomiting, Grade 3, % of patients [1]: (2.2) %
Vomiting, Grade 3, No. of patients [1]: 1
Vomiting, Grade 4, No. of patients [1]: 0
AEs leading to death or treatment-related deaths [2]: No AEs leading to death or treatment-related deaths were reported
Peripheral neuropathy or cardiovascular AEs of grade 3 or higher [2]: No cases
